Laboratory results as given in PMC3173227 (The Journal of Biological Chemistry, 2011).

B1: human Ube2T (enzyme, UniProt Q9NPD8 1-197, looked up)
chain: MQRASRLKRELHMLATEPPPGITCWQDKDQMDDLRAQILGGANTPYEKGVFKLEVIIPERYPFEPPQIRFLTPIYHPNIDSAGRICLDVLKLPPKGAWRPSLNIATVLTSIQLLMSEPNPDDPLMADISSEFKYNKPAFLKNARQWTEKHARQKQKADEEEMLDNLPEAGDSRVHNSTQKRKASQLVGIEKKFHPDV
B2: human FANCL RING domain (residues 289-375) (domain or fragment, UniProt Q9NW38 289-375, looked up)
chain: EIDFPARAILEKSDFTMDCGICYAYQLDGTIPDQVCDNSQCGQPFHQICLYEWLRGLLTSRQSFNIIFGECPYCSKPITLKMSGRKH

Columns and labels:
[1] = molecular target: human FANCL RING domain (residues 289-375) (human) (UniProt Q9NW38); experiment: ITC
[2] = molecular target: B2; experiment: SEC
[3] = molecular target: B1; experiment: ITC

Q: Which Kd [1] does the source give for “Ube2T-F63A (from UniProt Q9NPD8 1-197) (enzyme)” here?
A: The Kd was 5000 nM.

Q: How did the “stoichiometry N” value [2] turn out when B1 was run?
A: Its value is 1.

Q: For B2, which Kd [3] is on record?
A: Its Kd is 454 nM.
